From paper PMC5664571

Target: E. coli RNA polymerase holoenzyme saturated with sigma70 (Escherichia coli) (UniProt P0A7Z4+P0A8V2+P0A8T7+P0A800+P00579)
Experiment: EMSA
Settings: EMSA: 10 nM DNA, 0-170 nM RNAP, binding buffer (5X: 750 mM KCl, 0.5 mM DTT, 0.5 mM EDTA, 50 mM Tris pH 7.4; 1X = 150 mM KCl, 0.1 mM DTT, 0.1 mM EDTA, 10 mM …)

Row | Substance | Kd [nM]
1 | CCAGGATACATAGATTACCACAACTCCGAGCCCTTCCACCACCTATATTTGCTGCTCGTAAAAAAAAAACCTGACAGCTAGCTCAGTCCTAGGTATAATGCTAGCAGCTGTCACCGGATGTGCTTTCCGGTCTGATGAGTCCGTGAGGACGAAACAGCCTCTACAAATAATTTTGTTTAATAAGTCCAATAGTTTATAAGGAAAGAATTACCTATGCGTAAAGGCGAAGAGCTGTTCACTGGTGTCGTCCC (double strand) [J23108 + 1/2UP] | 22
2 | CCAGGATACATAGATTACCACAACTCCGAGCCCTTCCACCACCTATATTTGCTGCTCGTAAAAAAAAAACTTGACAGCTAGCTCAGTCCTAGGTACTGTGCTAGCAGCTGTCACCGGATGTGCTTTCCGGTCTGATGAGTCCGTGAGGACGAAACAGCCTCTACAAATAATTTTGTTTAATAAGTCCAATAGTTTATAAGGAAAGAATTACCTATGCGTAAAGGCGAAGAGCTGTTCACTGGTGTCGTCCC (double strand) [J23102 + 1/2UP] | 45.5
3 | CCAGGATACATAGATTACCACAACTCCGAGCCCTTCCACCACCTATATTTGCTGCTCGTAAAAAAAAAACTTGACAGCTAGCTCAGTCCTAGGTATAATGCTAGCAGCTGTCACCGGATGTGCTTTCCGGTCTGATGAGTCCGTGAGGACGAAACAGCCTCTACAAATAATTTTGTTTAATAAGTCCAATAGTTTATAAGGAAAGAATTACCTATGCGTAAAGGCGAAGAGCTGTTCACTGGTGTCGTCCC (double strand) [J23119 + 1/2UP] | 21
4 | CCAGGATACATAGATTACCACAACTCCGAGCCCTTCCACCACCTATGGAAAATTTTTTTAAAAAAAAAACCTGACAGCTAGCTCAGTCCTAGGTATAATGCTAGCAGCTGTCACCGGATGTGCTTTCCGGTCTGATGAGTCCGTGAGGACGAAACAGCCTCTACAAATAATTTTGTTTAATAAGTCCAATAGTTTATAAGGAAAGAATTACCTATGCGTAAAGGCGAAGAGCTGTTCACTGGTGTCGTCCC (double strand) [J23108 + UP] | 31.4
5 | CCAGGATACATAGATTACCACAACTCCGAGCCCTTCCACCACCTATGGAAAATTTTTTTAAAAAAAAAACTTGACAGCTAGCTCAGTCCTAGGTACTGTGCTAGCAGCTGTCACCGGATGTGCTTTCCGGTCTGATGAGTCCGTGAGGACGAAACAGCCTCTACAAATAATTTTGTTTAATAAGTCCAATAGTTTATAAGGAAAGAATTACCTATGCGTAAAGGCGAAGAGCTGTTCACTGGTGTCGTCCC (double strand) [J23102 + UP] | 44.8
6 | CCAGGATACATAGATTACCACAACTCCGAGCCCTTCCACCACCTATGGAAAATTTTTTTAAAAAAAAAACTTGACAGCTAGCTCAGTCCTAGGTATAATGCTAGCAGCTGTCACCGGATGTGCTTTCCGGTCTGATGAGTCCGTGAGGACGAAACAGCCTCTACAAATAATTTTGTTTAATAAGTCCAATAGTTTATAAGGAAAGAATTACCTATGCGTAAAGGCGAAGAGCTGTTCACTGGTGTCGTCCC (double strand) [J23119 + UP] | 42
7 | J23109 | 46
8 | J23109 + 1/2UP | 64.8
9 | J23109 + UP | 7.44
10 | J23112 | 50.8
11 | J23112 + 1/2UP | 68.2
12 | J23112 + UP | 12.6
13 | J23115 | 55
14 | J23115 + 1/2UP | 51.7
15 | J23115 + UP | 38.1
